Entries after “also recorded” stand apart in the source; their conditions may differ.
Legend:
[1] = target: T1, BRD2 (Homo sapiens, UniProt P25440); assay: Time-dependent BRD2-RUNX3 complex formation after serum stimulation by immunoprecipitation (IP) and immunoblotting (IB); assay type: binding; conditions: overexpressed Myc-tagged protein; FIG. 1
Description: The antibody targeting RUNX3 (5G4) (Cat #ab40278) was obtained from Abcam (Cambridge, UK), and the antibody was diluted 1:3000. BRD2 (M01; 1:1000; Cat #H00006046-M01, Abnova, Taipei City, Taiwan) was used for immunoblotting and immunoprecipitation.
RUNX3 phosphorylation in serine, the 356th amino acid of Runx3 protein, was measured by immunoprecipitation (IP) and immunoblotting (IB) in the same manner as described in Experimental Method 3 above.

[2] = target: T1, BRD2; assay: Time for which Runx3 protein forms a complex with Brd2 protein (IP/IB); assay type: binding; conditions: for time for which physical binding / complex with BRD2 was maintained: IP/IB
Description: The modified protein in which the 356th amino acid of Runx3 is substituted with alanine blocks the physical binding between Runx3 and CDK4, thereby inhibiting the phosphorylation of the 356th serine of Runx3 by CDK4. By inhibiting the conversion of the Rpa-Rx3-AC complex including Runx3 to the Rpa-Rx3-TR complex, the function of maintaining the anticancer activity of Runx3 is improved. Thus, the following experiment was performed to compare the time for the modified protein in which the 356th amino acid of Runx3 is substituted with alanine to form a complex by binding to Brd2 protein with the wild-type Runx3.
Particularly, the antibody targeting RUNX3 (5G4) (Cat #ab40278) was obtained from Abcam (Cambridge, UK), and the antibody was diluted 1:3000. BRD2 (M01; 1:1000; Cat #H00006046-M01, Abnova, Taipei City, Taiwan) was used for immunoblotting and immunoprecipitation.

[3] = test system: lung cancer cell lines; assay: Apoptosis by flow cytometry (FITC-Annexin V / propidium iodide), lung cancer cell lines; assay type: cell-based
Description: (§1) Each cell line was cultured in a 10 cm culture dish (5×10^5 cells) for 2 days and then approximately 2×10^6 cells of each cell line was infected with 1×10^8 VP of adenovirus or adenovirus Runx3 or adenovirus Runx3 S356A. After 48 hours, the cell death rate was measured by flow cytometry.

[4] = test system: stomach cancer cell lines; assay: Apoptosis by flow cytometry (FITC-Annexin V / propidium iodide), stomach cancer cell lines; assay type: cell-based; conditions: stomach (gastric) cancer cell lines; listed as modified protein in which the 356th serine of Runx3 is substituted with alanine
Description: as §1

[5] = test system: pancreatic cancer cell lines; assay: Apoptosis by flow cytometry (FITC-Annexin V / propidium iodide), pancreatic cancer cell lines; assay type: cell-based; conditions: listed as modified protein in which the 356th serine of Runx3 is substituted with alanine
Description: as §1

T1 sequence (P25440 whole entry): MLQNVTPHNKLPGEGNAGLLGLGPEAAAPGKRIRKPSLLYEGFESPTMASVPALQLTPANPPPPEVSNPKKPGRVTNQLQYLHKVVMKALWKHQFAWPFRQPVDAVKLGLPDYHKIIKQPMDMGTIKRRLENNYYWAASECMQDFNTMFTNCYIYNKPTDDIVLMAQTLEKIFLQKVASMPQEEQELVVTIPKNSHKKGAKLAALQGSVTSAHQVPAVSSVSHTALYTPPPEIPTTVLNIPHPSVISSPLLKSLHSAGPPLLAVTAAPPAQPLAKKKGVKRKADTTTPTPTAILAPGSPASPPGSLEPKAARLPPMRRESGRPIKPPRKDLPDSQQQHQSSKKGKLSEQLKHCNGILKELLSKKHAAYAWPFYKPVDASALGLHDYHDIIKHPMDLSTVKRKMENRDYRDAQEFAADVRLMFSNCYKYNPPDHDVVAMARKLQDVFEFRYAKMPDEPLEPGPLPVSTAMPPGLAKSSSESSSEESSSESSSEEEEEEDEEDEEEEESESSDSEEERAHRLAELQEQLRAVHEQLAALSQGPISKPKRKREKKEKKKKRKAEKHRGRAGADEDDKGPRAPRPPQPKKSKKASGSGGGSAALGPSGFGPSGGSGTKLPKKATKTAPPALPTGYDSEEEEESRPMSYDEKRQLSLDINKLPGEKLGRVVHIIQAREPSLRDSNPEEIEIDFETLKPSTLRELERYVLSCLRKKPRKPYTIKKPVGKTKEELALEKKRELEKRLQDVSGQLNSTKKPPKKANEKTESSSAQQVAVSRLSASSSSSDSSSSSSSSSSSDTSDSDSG

time for which binding with BRD2 was maintained after the serum stimulation [1] [h]	time for which physical binding / complex with BRD2 was maintained [2]	time after which the binding of Runx3 and BRD2 was separated ([2]; after the binding) [h]	Molecule	cancer cell killing compared to the wild-type Runx3 protein (in words) [3]	increase of apoptosis rate compared to the wild-type Runx3 protein ([3]; flow cytometry) [times]	cancer cell death efficacy compared to the wild-type Runx3 protein (in words) [4]	cancer cell death efficacy compared to the wild-type Runx3 protein (in words) [5]
≤ 8	up to 40 hours	–	S356A: Runx3 modified protein: 356th serine substituted with alanine (TCA→GCA) (protein, Myc tag; Runx3 isoform2 amino acid) MRIPVDPSTSRRFTPPSPAFPCGGGGGKMGENSGALSAQAAVGPGGRARPEVRSMVDVLADHAGELVRTDSPNFLCSVLPSHWRCNKTLPVAFKVVALGDVPDGTVVTVMAGNDENYSAELRNASAVMKNQVARFNDLRFVGRSGRGKSFTLTITVFTNPTQVATYHRAIKVTVDGPREPRRHRQKLEDQTKPFPDRFGDLERLRMRVTPSTPSPRGSLSTTSHFSSQPQTPIQGTSELNPFSDPRQFDRSFPTLPTLTESRFPDPRMHYPGAMSAAFPYSATPSGTSISSLSVAGMPATSRFHHTYLPPPYPGAPQNQSGPFQANPSPYHLYYGTSSGSYQFSMVAGSSSGGDRAPTRMLASCTSSAASVAAGNLMNPSLGGQSDGVEADGSHSNSPTALSTPGRMDEAVWRPY	more effective in killing cancer cells	≥ 2	more effective in killing cancer cells; also recorded: further increased the cancer cell death efficacy	more effective in killing cancer cells; also recorded: further increased the cancer cell death efficacy
–	up to 8 hours	3	S356 wild type: Wild-type Runx3 (Runt-related transcription factor 3) protein, 356th serine not substituted; SEQ ID NO: 2 (protein, Runx3 isoform2 amino acid) MRIPVDPSTSRRFTPPSPAFPCGGGGGKMGENSGALSAQAAVGPGGRARPEVRSMVDVLADHAGELVRTDSPNFLCSVLPSHWRCNKTLPVAFKVVALGDVPDGTVVTVMAGNDENYSAELRNASAVMKNQVARFNDLRFVGRSGRGKSFTLTITVFTNPTQVATYHRAIKVTVDGPREPRRHRQKLEDQTKPFPDRFGDLERLRMRVTPSTPSPRGSLSTTSHFSSQPQTPIQGTSELNPFSDPRQFDRSFPTLPTLTESRFPDPRMHYPGAMSAAFPYSATPSGTSISSLSVAGMPATSRFHHTYLPPPYPGAPQNQSGPFQANPSPYHLYYGTSSGSYQFSMVAGSSSGGDRSPTRMLASCTSSAASVAAGNLMNPSLGGQSDGVEADGSHSNSPTALSTPGRMDEAVWRPY	–	–	–	–

Source: US11931401B2, “Runx3 modified protein for prevention or treatment of cancer” (GeneCraft Inc., priority 2020, dated 2024)
